Results on three molecules are retold here after patent publication US20250145711A1 (Janssen / Centocor, published 2025).

For assay [1], the target named is T1, Human CD79b short isoform, recombinant extracellular domain (CD9W7.001) (human, UniProt P40259 29-159).
T1 chain: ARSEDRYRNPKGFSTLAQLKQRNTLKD
The assay can be described thus: SPR Biacore 8K, antibody captured by anti-human Fc, CD79b in solution, 25 C, 1:1 Langmuir. The protocol: (§1) General Protocol for SPR Affinity Assessment: Affinity assessment of the bispecific and trispecific constructs against human CD79b were measured using recombinantly expressed extracellular domain of CD79b short and long isoforms (CD9W7.001 and CD9W8.001, respectively) by Surface Plasmon Resonance (SPR) using a Biacore 8 k SPR system (Biacore) at 25° C. in HBSP+ buffer. Cross-reactivity of the same antibody panel was also assessed against cyno and mouse antigens (CD9W1.001 and CD9W105.001, respectively). Briefly, a C1 sensor chip was immobilized with anti-human Fc (target immobilization levels of >400 RU) using vendor recommended amino coupling protocol. The test antibodies were captured through immobilized anti-Fc and was followed by the injection of different CD79b constructs at different concentration series (human CD79b short and long isoforms: 30 nM-0.37 nM at 3-fold dilutions; cyno and mouse CD79b: 3000 nM-37 nM at 3-fold dilutions). The association and dissociation phases were measured for 2 or 3 minutes and 30 minutes, respectively.
(§2) The raw binding sensorgrams were processed using Biacore Insight software (Biacore) by double-referencing and the processed sensorgrams were analyzed for cross-reactivity and fitted to a 1:1 Langmuir model to obtain on-rates, off-rates and affinities.
A general note: SPR reads the build-up and loss of mass on a sensor chip optically.

The target in assay [2] is T2, Human CD79b long isoform, recombinant extracellular domain (CD9W8.001) (human, UniProt P40259 29-159).
T2 construct: extracellular domain; also called hu CD79b long
T2 sequence (looked up): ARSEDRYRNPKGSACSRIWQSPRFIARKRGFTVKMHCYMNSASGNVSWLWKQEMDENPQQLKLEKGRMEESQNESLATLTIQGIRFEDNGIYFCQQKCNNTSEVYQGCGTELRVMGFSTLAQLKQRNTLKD
The description is as above. The method, then: as §1, §2

For assay [3], the target named is T3, Human CD79b, endogenous on diffuse large B-cell lymphoma cell lines (human, UniProt P40259 29-229).
T3 construct: On HBL-1, OCI-LY10 and Carnaval cells, which also carry CD20; also called Igβ
T3 sequence: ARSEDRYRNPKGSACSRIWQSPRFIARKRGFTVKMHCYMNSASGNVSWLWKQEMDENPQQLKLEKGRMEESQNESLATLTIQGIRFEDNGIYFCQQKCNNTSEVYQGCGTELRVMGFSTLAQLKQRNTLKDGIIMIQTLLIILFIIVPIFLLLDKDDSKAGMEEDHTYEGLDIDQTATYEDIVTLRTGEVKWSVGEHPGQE
The assay can be described thus: flow cytometry on OCI-LY10 cells (endogenous CD79b and CD20; the trispecific also has a CD20 arm).

Assay [4] has as its target T3, Human CD79b, endogenous on diffuse …. The assay can be described thus: flow cytometry on Carnaval cells (endogenous CD79b and CD20; the trispecific also has a CD20 arm). (A flow cytometer gives signals particle by particle.)
Assay [5] has the same target. The assay can be described thus: flow cytometry on HBL-1 cells (endogenous CD79b and CD20; the trispecific also has a CD20 arm).
In assay [6] the target is T4, recombinant cynomolgus PSMA (cynomolgus, UniProt A0A2K5VNZ0 44-750).
T4 construct: also called cy PSMA; cyno PSMA
Description: SPR (Biacore 8K), antibody captured on anti-Fc, PSMA in solution; average of 3. The method, then:
(§3) The binding affinity of anti-PSMA to the recombinant human or cynomolgus PSMA was determined by surface plasmon resonance (SPR) using a Biacore 8K instrument (ELN PSMA-00721). The antibodies were captured on a goat anti-Fc antibody-modified C1 chip and titrated with 3-fold serial dilutions of PSMA antigen spanning concentrations of 100 nM to 3.7 nM (human PSMA) or […] 22.2-600 nM for cyno PSMA. The association and dissociation were monitored for 3 and 60 minutes, respectively, using a flow rate of 50 μL/min. Raw binding data was referenced by subtracting the analyte binding signals from blanks and analyzed using a 1:1 Langmuir binding model by the Biacore Insight evaluation software to obtain the kinetics which were used to calculate the binding affinity. The anti-PSMA were captured using an anti-human Fc antibody and the antigens were injected in solution.

The next assay has as its target T5, recombinant human PSMA (human, UniProt Q04609 44-750).
T5 construct: also called hu PSMA; prostate-specific membrane antigen
The assay can be described thus: SPR (Biacore 8K), antibody captured on anti-Fc, PSMA in solution; average of 2. The protocol: as §3

T5 sequence (Q04609 44-750 limits assumed): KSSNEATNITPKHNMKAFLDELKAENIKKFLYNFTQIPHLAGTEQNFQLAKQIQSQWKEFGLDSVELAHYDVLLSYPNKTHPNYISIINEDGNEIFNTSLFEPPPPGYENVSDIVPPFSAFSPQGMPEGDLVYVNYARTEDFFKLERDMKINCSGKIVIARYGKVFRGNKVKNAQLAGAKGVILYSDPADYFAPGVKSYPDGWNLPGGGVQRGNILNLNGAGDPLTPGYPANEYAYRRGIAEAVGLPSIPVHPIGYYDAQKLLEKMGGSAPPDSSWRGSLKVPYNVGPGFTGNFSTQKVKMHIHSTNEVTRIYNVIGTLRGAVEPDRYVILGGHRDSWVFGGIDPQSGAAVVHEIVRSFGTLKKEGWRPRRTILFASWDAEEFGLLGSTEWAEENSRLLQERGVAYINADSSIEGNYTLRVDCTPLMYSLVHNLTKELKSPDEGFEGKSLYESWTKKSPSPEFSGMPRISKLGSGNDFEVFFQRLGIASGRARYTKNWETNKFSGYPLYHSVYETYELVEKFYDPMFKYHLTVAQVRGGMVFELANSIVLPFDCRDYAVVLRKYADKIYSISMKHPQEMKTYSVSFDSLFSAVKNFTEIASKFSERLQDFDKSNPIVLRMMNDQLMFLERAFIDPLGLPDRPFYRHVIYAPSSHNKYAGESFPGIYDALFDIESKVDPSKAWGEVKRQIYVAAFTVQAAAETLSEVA

B1: C923B74 (other)
heavy: QVQLQQSGPGLVKPSQTLSLTCAISGDSVSSNSATWNWIRQSPSRGLEWLGRTYYRSKWYNDYTVSVKSRITINPDTSKNQFSLQLNSVTPEDTAVYYCTRVDIAFDYWGQGTLVTVSSASTKGPSVFPLAPSSKSTSGGTAALGCLVKDYFPEPVTVSWNSGALTSGVHTFPAVLQSSGLYSLSSVVTVPSSSLGTQTYICNVNHKPSNTKVDKKVEPKSCDKTHTCPPCPAPEAAGGPSVFLFPPKPKDTLMISRTPEVTCVVVSVSHEDPEVKFNWYVDGVEVHNAKTKPREEQYNSTYRVVSVLTVLHQDWLNGKEYKCKVSNKALPAPIEKTISKAKGQPREPQVYTLPPSREEMTKNQVSLSCAVKGFYPSDIAVEWESNGQPENNYKTTPPVLDSDGSFFLVSKLTVDKSRWQQGNVFSCSVMHEALHNRFTQKSLSLSPGK
light: QTVVTQPPSVSEAPRQRVTISCSGSSSNIGNHGVNWYQQLPGKAPKLLIYNDDLLPSGVSDRFSGSTSGTSGSLAISGLQSEDEADYYCAAWDDSLNGVVFGGGTKLTVLGQPKAAPSVTLFPPSSEELQANKATLVCLISDFYPGAVTVAWKADSSPVKAGVETTTPSKQSNNKYAASSYLSLTPEQWKSHRSYSCQVTHEGSTVEKTVAPTECS
chain: EIVLTQSPATLSASPGERVTLSCSASSSVSYMNWYQQKPGQAPRRWIYDSSKLASGVPARFSGSGSGRDYTLTISSLEPEDFAVYYCQQWSRNPPTFGGGTKVEIKGGSEGKSSGSGSESKSTGGSQVQLVQSGAEVKKPGSSVKVSCKASGYTFTRSTMHWVKQAPGQGLEWIGYINPSSAYTNYNQKFQGRVTLTADKSTSTAYMELSSLRSEDTAVYYCASPQVHYDYAGFPYWGQGTLVTVSSEPKSSDKTHTCPPCPAPEAAGGPSVFLFPPKPKDTLMISRTPEVTCVVVSVSHEDPEVKFNWYVDGVEVHNAKTKPREEQYNSTYRVVSVLTVLHQDWLNGKEYKCKVSNKALPAPIEKTISKAKGQPREPQVYTLPPSREEMTKNQVSLWCLVKGFYPSDIAVEWESNGQPENNYKTTPPVLDSDGSFFLYSKLTVDKSRWQQGNVFSCSVMHEALHNHYTQKSLSLSPGKGGSEGKSSGSGSESKSTGGSAIQLTQSPSSLSASVGDRVTITCRASSSVSYIHWFQQKPGKAPKPLIYATSNLASGVPSRFSGSGSGTDFTLTISSLQPEDFATYYCQQWTSNPPTFGQGTKLEIKGGSEGKSSGSGSESKSTGGSQVQLVQSGAEVKKPGSSVKVSCKASGYTFTSYNMHWVRQAPGQGLEWMGAIYPGNGDTSYAQKFQGRVTITADKSTSTAYMELSSLRSEDTAVYYCARSTYYGGDWYFNVWGQGTLVTVSS
notes: Trispecific IgG1 antibody; HC1/LC form the CD79b Fab; HC2 is CD3 scFv-Fc-linker-CD20 scFv; also called CD79bxCD20xCD3 trispecific; CD9B330-N31S / CD3B2030-N106A-scFv-LH-C20B22
Consider B1, for which the figures for the Kd in assay [1] and in assay [2] were 0.39 nM and 0.023 nM, respectively. The EC50 (commonly the concentration giving half of the maximal effect) is 66 nM in assay [3], 23 nM in assay [4] and 52 nM in assay [5].

B2: C923B99 (other)
heavy: QVQLQESGPGLVKPSQTLSLTCTVSGVSISNYYWSWIRQPPGKGLEWIGRISPSGRTNYNPSLKSRVTMSLDASKNQFSLKLSSVTAADTAVYYCARGEYSGTYSYSFDIWGQGTMVTVSSASTKGPSVFPLAPSSKSTSGGTAALGCLVKDYFPEPVTVSWNSGALTSGVHTFPAVLQSSGLYSLSSVVTVPSSSLGTQTYICNVNHKPSNTKVDKKVEPKSCDKTHTCPPCPAPEAAGGPSVFLFPPKPKDTLMISRTPEVTCVVVSVSHEDPEVKFNWYVDGVEVHNAKTKPREEQYNSTYRVVSVLTVLHQDWLNGKEYKCKVSNKALPAPIEKTISKAKGQPREPQVYTLPPSREEMTKNQVSLSCAVKGFYPSDIAVEWESNGQPENNYKTTPPVLDSDGSFFLVSKLTVDKSRWQQGNVFSCSVMHEALHNRFTQKSLSLSPGK
light: DIQMTQSPSSLSASVGDRVTITCRSSQSLFDSDDGNTYLDWFQQKPGQSPKLLIQTLSYRASGVPSRFSGSGSGTDFTLTISSLQPEDFATYYCMQRMEFPLTFGGGTKVEIKRTVAAPSVFIFPPSDEQLKSGTASVVCLLNNFYPREAKVQWKVDNALQSGNSQESVTEQDSKDSTYSLSSTLTLSKADYEKHKVYACEVTHQGLSSPVTKSFNRGEC
chain: EIVLTQSPATLSASPGERVTLSCSASSSVSYMNWYQQKPGQAPRRWIYDSSKLASGVPARFSGSGSGRDYTLTISSLEPEDFAVYYCQQWSRNPPTFGGGTKVEIKGGSEGKSSGSGSESKSTGGSQVQLVQSGAEVKKPGSSVKVSCKASGYTFTRSTMHWVKQAPGQGLEWIGYINPSSAYTNYNQKFQGRVTLTADKSTSTAYMELSSLRSEDTAVYYCASPQVHYDYAGFPYWGQGTLVTVSSEPKSSDKTHTCPPCPAPEAAGGPSVFLFPPKPKDTLMISRTPEVTCVVVSVSHEDPEVKFNWYVDGVEVHNAKTKPREEQYNSTYRVVSVLTVLHQDWLNGKEYKCKVSNKALPAPIEKTISKAKGQPREPQVYTLPPSREEMTKNQVSLWCLVKGFYPSDIAVEWESNGQPENNYKTTPPVLDSDGSFFLYSKLTVDKSRWQQGNVFSCSVMHEALHNHYTQKSLSLSPGKGGSEGKSSGSGSESKSTGGSAIQLTQSPSSLSASVGDRVTITCRASSSVSYIHWFQQKPGKAPKPLIYATSNLASGVPSRFSGSGSGTDFTLTISSLQPEDFATYYCQQWTSNPPTFGQGTKLEIKGGSEGKSSGSGSESKSTGGSQVQLVQSGAEVKKPGSSVKVSCKASGYTFTSYNMHWVRQAPGQGLEWMGAIYPGNGDTSYAQKFQGRVTITADKSTSTAYMELSSLRSEDTAVYYCARSTYYGGDWYFNVWGQGTLVTVSS
notes: Trispecific IgG1 antibody; HC1/LC form the CD79b Fab; HC2 is CD3 scFv-Fc-linker-CD20 scFv; also called CD79bxCD20xCD3 trispecific; CD9B643 / CD3B2030-N106A-scFv-LH-C20B22
Consider B2, for which the Kd (commonly the constant that tells how readily two partners part at equilibrium) turned out to be 0.27 nM in assay [1] and 0.04 nM in assay [2]. Moreover, the EC50 was found to be 2 nM in assay [3], 6 nM in assay [4] and 8 nM in assay [5].

B3: PS3B1391 (bispecific antibody, human IgG1, kappa, L234A L235A)
chain: EIVLTQSPATLSASPGERVTLSCSASSSVSYMNWYQQKPGQAPRRWIYDSSKLASGVPARFSGSGSGRDYTLTISSLEPEDFAVYYCQQWSRNPPTFGGGTKVEIKGGSEGKSSGSGSESKSTGGSQVQLVQSGAEVKKPGSSVKVSCKASGYTFTRSTMHWVKQAPGQGLEWIGYINPSSAYTNYNQKFQGRVTLTADKSTSTAYMELSSLRSEDTAVYYCASPQVHYDYAGFPYWGQGTLVTVSSEPKSSDKTHTCPPCPAPEAAGGPSVFLFPPKPKDTLMISRTPEVTCVVVSVSHEDPEVKFNWYVDGVEVHNAKTKPREEQYNSTYRVVSVLTVLHQDWLNGKEYKCKVSNKALPAPIEKTISKAKGQPREPQVYTLPPSREEMTKNQVSLWCLVKGFYPSDIAVEWESNGQPENNYKTTPPVLDSDGSFFLYSKLTVDKSRWQQGNVFSCSVMHEALHNHYTQKSLSLSPGK
heavy: EVQLVESGGGLVKPGGSLRLSCVASGFTFSFYSMNWVRQAPGKGLDWVSSISSSGNYIYYADSVKGRFTISRDNAKNSLHLHMNSLKAEDTAMYFCARSYSGSYDAFDFWGQGTMVTVSSASTKGPSVFPLAPSSKSTSGGTAALGCLVKDYFPEPVTVSWNSGALTSGVHTFPAVLQSSGLYSLSSVVTVPSSSLGTQTYICNVNHKPSNTKVDKKVEPKSCDKTHTCPPCPAPEAAGGPSVFLFPPKPKDTLMISRTPEVTCVVVSVSHEDPEVKFNWYVDGVEVHNAKTKPREEQYNSTYRVVSVLTVLHQDWLNGKEYKCKVSNKALPAPIEKTISKAKGQPREPQVYTLPPSREEMTKNQVSLSCAVKGFYPSDIAVEWESNGQPENNYKTTPPVLDSDGSFFLVSKLTVDKSRWQQGNVFSCSVMHEALHNRFTQKSLSLSPGK
light: EIVMTQSPGTLSLSPGERATLSCRASQSVSSSFLAWYQQKPGQAPRLLISGASSRATGIPDRFSVSGSGTDFTLTISRLEPEDFAVYYCQQYGVSPWTFGQGTKVEIKRTVAAPSVFIFPPSDEQLKSGTASVVCLLNNFYPREAKVQWKVDNALQSGNSQESVTEQDSKDSTYSLSSTLTLSKADYEKHKVYACEVTHQGLSSPVTKSFNRGEC
notes: HC 1: N-term scFv LH CD3B2030 N106A; HC 2: N-term Fab PSMHB49SC1133_011A11_1; LC1 is given as NA; also called PS3B1391.002
As for B3, in assay [6], the Kd was 0.126 nM; the koff (as a rule, the first-order rate constant of dissociation) was 1.96e-05 s⁻¹; the kon (commonly the second-order rate constant of association) turned out to be 157000 M⁻¹ s⁻¹. In the assay with recombinant human PSMA, the Kd stood at 0.1 nM, the koff was 4.8e-05 s⁻¹ and the kon stood at 480000 M⁻¹ s⁻¹.
